Assays:
AzoC = tested on: T1, AzoC; experiment: HPLC, initial velocity, Michaelis-Menten fit; assay type: biochemical, Streptomyces chattanoogensis; conditions: 30 °C, 1 h; 5.2 μM enzyme; substrate 0.05-2 mM; general in vitro reaction (not restated for kinetics): NADH 0.1 mM, PMS 0.75 mM, 20 mM HEPES pH 7.5, but 3 μM enzyme; read-out: Substrate: 2-methoxypyrimidin-5-amine / Km
T1 construct: nonheme diiron enzyme
From the text: (§1) HPLC, initial velocity, Michaelis-Menten fit on AzoC

COc1ncc(N)cn1 = tested on: T2, COc1ncc(N)cn1; experiment: HPLC, initial velocity, Michaelis-Menten fit; assay type: biochemical, Streptomyces chattanoogensis; conditions: 30 °C, 1 h, 5.2 μM enzyme, substrate 0.05-2 mM, general in vitro reaction (not restated for kinetics): NADH 0.1 mM, PMS 0.75 mM, 20 mM HEPES pH 7.5
T2 construct: nonheme diiron enzyme
From the text: as §1

Km (AzoC)	Compound	Km (COc1ncc(N)cn1)	kcat (COc1ncc(N)cn1)	kcat/Km (COc1ncc(N)cn1)
510 ± 59 µM	COc1ncc(N)cn1 [compound 3, 2-methoxypyrimidin-5-amine]	–	–	–
–	AzoC (Streptomyces chattanoogensis)	650 ± 120 µM	0.018 ± 0.0014 s⁻¹	27.7 M⁻¹ s⁻¹

Source: paper PMC8840469, “Directed Evolution of a Nonheme Diiron N-oxygenase AzoC for Improving Its Catalytic Efficiency toward Nitrogen Heterocycle Substrates” (Molecules, 2022)
